We go through 1 substance from US20200270339A1.

Usually Kd stands for the equilibrium constant for the complex coming apart. In general, koff refers to the first-order rate constant of dissociation. As usually defined, the kon is the second-order rate constant of association. A lower kon goes with slow association.

Experiment [1] deals with human IL-15 complexed with the IL-15 Receptor-alpha (human) (UniProt P40933). Nature of the experiment: SPR, antibody captured on Protein A chip, IL-15 complex as analyte. Background: SPR reads the build-up and loss of mass on a sensor chip optically.
Sequence of human IL-15 complexed with the IL-15 Receptor-alpha (human) (P40933 49-162 limits assumed, chain 1 of 2): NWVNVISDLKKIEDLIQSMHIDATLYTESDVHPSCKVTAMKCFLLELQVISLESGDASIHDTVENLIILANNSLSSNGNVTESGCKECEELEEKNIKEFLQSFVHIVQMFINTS
Sequence of human IL-15 complexed with the IL-15 Receptor-alpha (human) (chain, as listed by the source limits assumed, chain 2 of 2): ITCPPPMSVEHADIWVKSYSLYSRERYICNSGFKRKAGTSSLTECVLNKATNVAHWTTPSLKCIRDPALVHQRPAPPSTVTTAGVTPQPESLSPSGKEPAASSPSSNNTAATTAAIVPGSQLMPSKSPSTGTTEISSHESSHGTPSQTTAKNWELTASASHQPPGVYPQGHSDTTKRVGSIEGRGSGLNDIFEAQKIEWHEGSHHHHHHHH
Experiment [2] shares this target. Briefly: cell-based or functional assay.
Experiment [3] shares this target. Nature of the experiment: SPR.
The target is the same in experiment [4]. Briefly: SPR, antibody captured on Protein A chip.

Where “and” joins values, the source holds several entries; their conditions need not be identical. Equal entries are not always repeated.

Sequence of AMG714 (antibody) (VH): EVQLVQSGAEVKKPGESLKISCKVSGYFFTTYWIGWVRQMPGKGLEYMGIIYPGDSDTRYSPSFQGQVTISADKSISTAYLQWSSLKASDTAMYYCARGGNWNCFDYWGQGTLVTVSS
Sequence of AMG714 (antibody) (VL): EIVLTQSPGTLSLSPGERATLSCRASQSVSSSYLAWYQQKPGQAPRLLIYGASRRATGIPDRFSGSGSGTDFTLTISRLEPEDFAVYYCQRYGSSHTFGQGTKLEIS

In turn, AMG714 (antibody) had a Kd in experiment [1] of 1.84 nM. Also, in experiment [2], the Max IC50 (pM), NK-92 proliferation assay was determined as 2650 pM; the Mean IC50 (pM), NK-92 proliferation assay worked out at 1300 pM; the Min IC50 (pM), NK-92 proliferation assay was found to be 378 pM. For the same substance, in experiment [3], the Kd is 1.86 nM and 1.82 nM; the koff was 0.000398 s⁻¹ and 0.00038 s⁻¹; the kon is 209000 M⁻¹ s⁻¹ and 214000 M⁻¹ s⁻¹. The fold faster dissociation rate than from Antibody 70 variants in experiment [4] stood at 10 fold.
